The values below come from patent publication EP2852397B1.

One test concerns the target human Nav1.2 (human) (UniProt Q99250). The test is described as follows: cell-based or functional assay.
The target in the next test is human Nav1.7 (human) (UniProt Q15858). In words: cell-based or functional assay.

For the substance recombinant Huwentoxin-IV (peptide), the IC50, veratridine-induced depolarization inhibition assay in the test with human Nav1.2 (human) amounted to 342 nM. Moreover, in the test with human Nav1.7 (human), the IC50, veratridine-induced depolarization inhibition assay was found to be 159 nM; the IC50, veratridine-induced depolarization inhibition assay (FRET, FLIPR Tetra) came out at 160 nM; the ratio of IC50 for Nav1.2 to IC50 for Nav1.7 amounted to 2.14.
